Data as given in US20190359693A1.

Experiments:
Assay in all cases: cell-based or functional assay
[1] = target: hemagglutinin (HA) of influenza A/Indonesia/5/05 (H5N1) (influenza A virus)
[2] = target: hemagglutinin (HA) of influenza A/Solomon Islands/3/2006 (IVR 145) (H1N1) (influenza A virus)
[3] = target: hemagglutinin (HA) of influenza A/PR8 H5N1 HK97 (H5N1) (influenza A virus)
[4] = target: hemagglutinin (HA) of influenza A/Eurasian Wigeon/HK/MPF333/07 (H5N2) (influenza A virus)
[5] = target: hemagglutinin (HA) of influenza A/Northern Shoveler/MPE2531/08 (H10N9) (influenza A virus)
[6] = target: hemagglutinin (HA) of influenza A/HK/466419/09 (H9N2) (influenza A virus)
[7] = target: hemagglutinin (HA) of influenza A/Victoria/210/09 (H3N2) (influenza A virus)
[8] = target: hemagglutinin (HA) of influenza A/Jiangxi/346/2013 (H10N8) (influenza A virus)
[9] = target: hemagglutinin (HA) of influenza A/AnnArbor/23/57 (H2N2) (influenza A virus)
[10] = target: hemagglutinin (HA) of influenza A/WF/HK/MPA892/06 (H4) (influenza A virus)
[11] = target: hemagglutinin (HA) of influenza B/Massachusetts/02/12 (Yamagata) (influenza B virus)
[12] = target: hemagglutinin (HA) of influenza B/Malaysia/2506/04 (Victoria) (influenza B virus)
[13] = target: hemagglutinin (HA) of influenza A/Vietnam/1194/04 (H5N1) (influenza A virus)
[14] = target: hemagglutinin (HA) of influenza A/Hiroshima/52/05 (H3N2) (influenza A virus)
[15] = target: hemagglutinin (HA) of influenza A/NIBRG/60 (A/mallard/Netherlands/12/00) (H7N3) (influenza A virus)
[16] = target: hemagglutinin (HA) of influenza A/Env/MPJ1258/09 (H8N2) (influenza A virus)
[17] = target: hemagglutinin (HA) of influenza A/Eurasian Wigeon/MPF461/07 (H5N2) (influenza A virus)
[18] = target: hemagglutinin (HA) of influenza A/Perth/16/09 (H3N2) (influenza A virus)
[19] = target: hemagglutinin (HA) of influenza A/Ck/HK/SSP176/09 (H9N2) (influenza A virus)
[20] = target: hemagglutinin (HA) of influenza A/HK/1174/99 (H3N2) (influenza A virus)
[21] = target: hemagglutinin (HA) of influenza A/HK/54/98 (H1N1) (influenza A virus)
[22] = target: hemagglutinin (HA) of influenza A/Northern Shoveler/MPF518/08 (H7N7) (influenza A virus)

Q: Which results are given for MD3606 (Fc fusion)?
A: Average neutralization titers [1]: 11.5 nM; Average neutralization titers [2]: 1.6 nM; Average neutralization titers [3]: 6.5 nM; Average neutralization titers [4]: 7 nM; Average neutralization titers [5]: 20.7 nM; Average neutralization titers [6]: 5.3 nM; Average neutralization titers [7]: 6.5 nM; Average neutralization titers [8]: 18.3 nM; Average neutralization titers [9]: 13.2 nM; Average neutralization titers [10]: 3 nM; Average neutralization titers [11]: 1 nM; Average neutralization titers [12]: 2.6 nM; Average neutralization titers [13]: 5.7 nM; Average neutralization titers [14]: 6.5 nM; Average neutralization titers [15]: 12.9 nM; Average neutralization titers [16]: 3.9 nM; Average neutralization titers [17]: 9.2 nM; Average neutralization titers [18]: 5.7 nM; Average neutralization titers [19]: 9 nM; Average neutralization titers [20]: 23 nM; Average neutralization titers [21]: 5 nM; Average neutralization titers [22]: 18.4 nM
